Biological target: protein fusion 1, SpyCatcher03 fused to supercharged green fluorescent protein, conjugated with polymer surfactant ([SC3-scGFP][S])
Assay: SDS-PAGE of covalent (isopeptide) SpyCatcher-SpyTag coupling; 10 uM of each protein mixed in 20 mM Tris-HCl, 700 mM NaCl, pH 7.5, 37 °C, monitored over 24 h, in triplicate; product estimated from the pixel intensity of the bands (GelAnalyzer)

Row | Substance | percent of coupling product formed after 15 s [%] | yield of coupling product after 24 h [%]
1 | protein fusion 3, mCherry fused to SpyTag03 (mCh-ST3) | 60 | 60
2 | protein fusion 2, fibronectin-binding protein CshA fused to mCherry with SpyTag03 on the C-terminus (CshA-mCh-ST3) | 40 | 80
